Experiment [1] has as its target phosphorylated NKG2A N-term peptide (N-terminal ITIM) (human). Description: SPR (BIAcore), 25 RU phosphopeptide on streptavidin chip, GST fusion injected.
Experiment [2] deals with phosphorylated NKG2A C-term peptide (C-terminal ITIM) (human). The description is as above.
The target in experiment [3] is phosphorylated NKG2A N-term peptide (N-terminal ITIM) (human). In words: SPR (BIAcore); upper end of the range, tied by Table 4 to GST-SHP-1.SH2(N+C) and the N-terminal ITIM (4.80). A general note: Surface plasmon resonance follows binding to a sensor surface in real time, without labels.
For experiment [4], the system named is melanoma-specific CTL clones. In words: Auto-presentation assay, TNF release. The experiment is classed as cell-based, human. The note with it: clone M117-14, TYR peptide 10 μM, mAb without cross-linking. The procedure: (§1) 5×10^4 CTLs were incubated with indicated concentrations of peptides in 100 μl final volume. After two hours, supernatants were harvested to test the TNF secretion and lysis was estimated by flow cytometry on the basis of size/granularity patterns as previously described. TNF determinations were performed by a biologic assay using cytotoxicity on the sensitive WEHI 164 clone 13 cells, as compared to a standard curve established using rTNF-β (Genzyme).
Results are illustrated by FIG. 13 showing that CD94-NKG2A inhibits the antigen-specific TNF production by CTL clones. In FIG. 13, the melanoma specific CTL clones M117-14 and 7-10 were stimulated in an auto-presentation assay with their respective cognate peptides (i.e.:EAA for 7-10 and M77-84, and TYR for M117-14) at a concentration of 10 μM, in the presence or indicated mAbs. TNF release was assessed in the supernatant by a biological assay using the WEHI 164, a TNF sensitive cell line. Data from one representative experiment out of five, are expressed as mean TNF (pg/ml)±SD of triplicate samples.

In experiment [5] the test system is melanoma-specific CTL clones. Description: Auto-presentation assay, CTL lysis. The experiment is classed as cell-based, human. The note with it: clone M117-14, TYR peptide, 2 hours. As to the method: as §1
Results are illustrated by FIG. 14 showing the negative regulation of antigen-induced CTL clone cytotoxicity by CD94-NKG2A. In FIG. 14, cells from the melanoma specific CTL clone M117-14 were stimulated in an auto-presentation assay with the indicated concentrations of cognate peptide (TYR). Cytotoxicity was measured, in the presence or absence of anti-CD94 mAb (HB-3B1). Cell lysis was estimated by flow cytometry on the basis of size/granularity patterns after auto-presentation in a short term assay (2 hours). Data shown are representative from 5 independent experiments.

Experiment [6] addresses T1, SHIP polyinositol phosphatase from RBL-2H3 cell lysates (rat (cell line RBL-2H3), UniProt P97573 1-1190, limits assumed).
T1 construct: Detected by immunoblot with anti-SHIP antiserum
T1 sequence (looked up): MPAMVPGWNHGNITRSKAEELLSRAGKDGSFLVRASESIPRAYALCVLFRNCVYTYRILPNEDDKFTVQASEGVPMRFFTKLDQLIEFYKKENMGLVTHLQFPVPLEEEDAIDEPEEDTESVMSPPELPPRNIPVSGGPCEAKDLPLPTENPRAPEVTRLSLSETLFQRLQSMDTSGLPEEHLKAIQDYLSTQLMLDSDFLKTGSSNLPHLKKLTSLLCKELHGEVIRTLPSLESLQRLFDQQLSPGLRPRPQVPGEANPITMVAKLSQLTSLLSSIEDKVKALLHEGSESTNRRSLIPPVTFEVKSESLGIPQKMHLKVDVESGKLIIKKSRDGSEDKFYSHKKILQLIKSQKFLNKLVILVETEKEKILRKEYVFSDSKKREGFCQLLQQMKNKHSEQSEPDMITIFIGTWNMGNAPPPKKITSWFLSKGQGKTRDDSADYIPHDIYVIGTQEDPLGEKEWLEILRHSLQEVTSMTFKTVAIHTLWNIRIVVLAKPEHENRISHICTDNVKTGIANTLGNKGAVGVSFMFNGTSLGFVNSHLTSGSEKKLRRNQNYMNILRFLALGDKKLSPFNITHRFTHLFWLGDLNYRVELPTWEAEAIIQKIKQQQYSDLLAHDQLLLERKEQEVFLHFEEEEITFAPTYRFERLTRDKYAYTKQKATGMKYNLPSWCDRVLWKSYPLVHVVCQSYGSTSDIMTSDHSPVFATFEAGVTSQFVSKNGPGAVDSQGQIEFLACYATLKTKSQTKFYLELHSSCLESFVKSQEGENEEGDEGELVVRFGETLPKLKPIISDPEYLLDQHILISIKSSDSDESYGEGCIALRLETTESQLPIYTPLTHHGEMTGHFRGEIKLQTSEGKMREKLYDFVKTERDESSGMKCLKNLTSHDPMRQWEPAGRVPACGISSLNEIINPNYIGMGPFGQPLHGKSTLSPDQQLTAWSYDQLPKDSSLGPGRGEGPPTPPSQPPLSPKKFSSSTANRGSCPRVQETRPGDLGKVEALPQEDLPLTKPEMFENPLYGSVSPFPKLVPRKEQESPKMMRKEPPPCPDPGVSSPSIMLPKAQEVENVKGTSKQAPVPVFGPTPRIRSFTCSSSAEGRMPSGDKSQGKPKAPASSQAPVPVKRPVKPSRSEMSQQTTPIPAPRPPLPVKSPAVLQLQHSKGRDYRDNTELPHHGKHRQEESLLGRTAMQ
In words: cell lysate adsorption to peptide beads, immunoblot (RBL-2H3).

Experiment [7] deals with T2, human NKG2A on NKL, M117-14 and 7-10 cells (human, UniProt P26715 1-233).
T2 construct: whole, on cells
T2 sequence (P26715 whole entry): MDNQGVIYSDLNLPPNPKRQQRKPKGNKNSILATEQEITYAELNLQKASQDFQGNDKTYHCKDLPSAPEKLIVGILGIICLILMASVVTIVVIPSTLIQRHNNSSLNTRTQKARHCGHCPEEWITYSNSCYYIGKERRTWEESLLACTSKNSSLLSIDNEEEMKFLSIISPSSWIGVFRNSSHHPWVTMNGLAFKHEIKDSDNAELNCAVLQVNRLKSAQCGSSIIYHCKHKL
In words: immunoprecipitation with anti-NKG2A and anti-CD94 mAb.

The target in experiment [8] is T1, SHIP polyinositol phosphatase from …. In words: cell lysate adsorption to peptide beads, immunoblot (RBL-2H3), FIG. 15A. The procedure:
In an attempt to characterize the function of these putative ITIMs, cell lysates were incubated with phosphorylated and nonphosphorylated synthetic peptides corresponding to the N-terminal and the C-terminal I/VxYxxL stretches present in NKG2A intracytoplasmic domain. Cell lysates absorbed to peptides were then assayed by immunoblotting for the presence of the phosphatases known to interact with phosphorylated ITIMs, i.e. the protein tyrosine phosphatases SHP-1 and SHP-2, as well as the polyinositol phosphate phosphatase, SHIP. In parallel, lysates adsorption were performed using control peptides corresponding to ITIMs present in Ig-like ITIM bearing receptors such as human KIRs (p58.2/CD158b, a receptor for HLA-Cw3) and mouse FcγRIIB, as well as in mouse lectin-like ITIM-bearing receptor, such as Ly-49A.
As shown in FIG. 15A (lanes 1 and 2), both N- and C-terminal I/VxYxxL stretches present in NKG2A associate with SHP-1 and SHP-2 in vitro, but no binding to SHIP was detected. Similar patterns of association were obtained using the phosphorylated ITIM peptides of […] and p58.2 KIR (FIG. 15A, lanes 3 to 5). In contrast, FcγRIIB phosphorylated ITIM peptides also associate with SHIP (FIG. 15A, lane 6). No association of phosphatases with nonphosphorylated peptides corresponding to FcγRIIB (FIG. 15A, lane 7) and NKG2A N- and C-terminal I/VxYxxL stretches was detected. When nonphosphorylated and phosphorylated peptides were used to adsorb lysates prepared from ³⁵S methionine/cysteine-labeled cells, only two bands around 64 and 68 kDa selectively associate with both phosphorylated NKG2A N- and C-terminal I/VxYxxL stretches, as compared to nonphosphorylated ones (FIG. 15B). The 64 and 68 kDa proteins which bind to phosphorylated NKG2A peptides correspond to SHP-1 and SHP-2 apparent molecular weight respectively, supporting the immunoblotting results. Therefore, our results define the two NKG2A I/VxYxxL stretches as ITIMs which appear to function similarly to other ITIMs present in inhibitory receptors for MHC class I molecules, i.e. KIRs and Ly-49 molecules. Using recombinant soluble tandem SH2 domains of SHP-1 and SHP-2, we confirmed by surface plasmon resonance that both NKG2A ITIM phosphopeptides directly associate with the SH2 domains of SHP-1 and SHP-2, but not with the SH2 domain of SHIP (FIG. 16).

The target of experiment [9] is T3, GST-SHIP.SH2 fusion protein (murine, UniProt Q9ES52 8-104).
T3 construct: also called SH2 domain of SHIP; not shown: Glutathione S-transferase (GST) fusion partner
T3 sequence (looked up): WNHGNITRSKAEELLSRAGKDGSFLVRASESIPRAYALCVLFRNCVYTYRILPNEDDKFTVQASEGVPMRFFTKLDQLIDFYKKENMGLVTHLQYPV
Description: SPR (BIAcore), phosphopeptide (25 RU) on streptavidin chip, FIG. 16. As to the method:
Surface plasmon resonance measurements were performed on a BIAcore apparatus (BIAcore). The GST-SHP1.SH2(NC), GST-SHP2.SH2(NC) and GST-SHIP.SH2 fusion proteins generated from the murine phosphatase cDNAs, were purified from DH5α lysates as previously described. Before their use in BIAcore experiments, fusion proteins were dialyzed in HBS buffer pH 7.4 (10 mM HEPES, 150 mM NaCl, 3.4 mM EDTA). Protein purity was assessed by 12.5% SDS-PAGE, and Coomassie blue staining. The running buffer used in all BIAcore experiments consisted of HBS buffer supplemented with 0.05% surfactant P20. Equilibrium constant determination (koff and kₒₙ) was performed using BIAevaluation 2.0 software. The equilibrium dissociation constants KD were calculated from the koff/kₒₙ ratio.
The measurement of phosphorylated peptide binding to GST-SHP-1.SH2(N+C) and GST-SHP-2.SH2(N+C) fusion proteins was performed at a constant 5 μl/min flow rate. […] Results are expressed as corrected resonance units (CRU) corresponding to the raw RU values after subtraction of background RU value due to the injection medium, koff and kₒₙ were calculated from three independent measurements using the BIAevaluation 2.0 software. In addition, kₒₙ was calculated as the slope of the curve kg=kₒₙ×c−koff, where koff is the off-rate constant and c is the concentration of the soluble recombinant GST fusion proteins. […]

Where no end group is shown, it is not given here. [ ]: non-standard residue; d: D form. The star is where a group is joined. Biotin = O=C1N[C@H]2[C@H](CS[C@H]2CCCCC(=O)*)N1; pY = N[C@@H](Cc1ccc(OP(=O)(O)O)cc1)C(=O)O

Usually Kd stands for the free concentration of one partner at which half of the binding sites on the other are occupied at equilibrium, for simple one-to-one binding. A lower Kd goes with a tighter complex. For orientation: koff means a measure of how fast the partners let go of each other. High values mean a short-lived complex, low ones a long-lived complex. Broadly, the kon is the second-order rate constant of association. Low readings indicate slower complex formation, high ones faster complex formation. Regarding “GST-SHP-1.SH2(N+C) fusion protein (from UniProt P29351 1-217)”, the Kd in [1] was 4.8 nM; in experiment [2], 2.83 nM; in experiment [3], 1 to 5 nM. Moreover, the dissociation rate constant (koff) was determined as 0.00189 s⁻¹ in [1] and 0.00117 s⁻¹ in [2]. Also, the figures for the kon in experiment [1] and in [2] were 390000 M⁻¹ s⁻¹ and 410000 M⁻¹ s⁻¹, respectively.
As to Y1MDGTMSQV9 [TYR], the TNF production result in [4] is listed as “released TNF”. In experiment [5], the “CTL lysis (auto-toxicity)” value is “lysed in a dose-dependent manner”.

B1: non-phosphorylated NKG2A N-term peptide (peptide)
peptide: Biotin-MDNQGVIYSDLNL
notes: also called nonphosphorylated NKG2A N-terminal I/VxYxxL stretch
Turning to B1, the binding result in experiment [6] was “no binding”.

B2: human CD94 on NKL, M117-14 and 7-10 cells (receptor, UniProt Q13241 1-179, looked up)
chain: MAVFKTTLWRLISGTLGIICLSLMSTLGILLKNSFTKLSIEPAFTPGPNIELQKDSDCCSCQEKWVGYRCNCYFISSEQKTWNESRHLCASQKSSLLQLQNTDELDFMSSSQQFYWIGLSYSEEHTAWLWENGSALSQYLFPSFETFNTKNCIAYNPNGNALDESCEDKNRYICKQQLI
notes: whole, on cells
For the molecule B2, the binding result in [7] is reported as “binds”.

B3: phosphorylated NKG2A N-term peptide (N-terminal ITIM) (peptide)
peptide: Biotin-MDNQGVI[pY]SDLNL
notes: also called NKG2-A N-terminal ITIM; NKG2A/B phosphorylated ITIM peptide
For B3, the figures for the binding result in experiment [8] and in experiment [9] were “no binding” and “no binding (tested: 100 nM)”, respectively.

For the origin of these results see patent publication US20040038894A1, “Compounds for modulating cell negative regulations and biological applications thereof” (INSTITUT NATIONAL DE LA SANTE ET DE LA RECHERCHE MEDICALE …, priority 1996, published 2004).
